Source: the supplement of paper PMC10201428
± gives the standard deviation of the averaged measurements.

Tests used:
[1] = test system: VchCAST RNA-guided transposition machinery (E. coli BL21(DE3) host, lacZ target); test: relative integration efficiency (T-RL orientation) vs wild-type transposon end (log2 (normalized fold change)); transposon end mutated: right end (5 bp flank + 75 bp right end); higher = more efficient transposition
How it was run: (§1)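 Barcoded pools of 1549 left-end or 1849 right-end transposon variants were cloned into a pUC57 mini-transposon donor. Each pool was co-transformed with a T7-driven effector plasmid (CRISPR array, tniQ-cas8-cas7-cas6, tnsA-tnsB-tnsC) into E. coli BL21(DE3) and plated with 0.1 mM IPTG at 37°C for 18 h. Input plasmids and genomic integration junctions were PCR-amplified and Illumina-sequenced, with two biological output replicates and four wild-type barcodes as reference. Relative integration efficiency is output/input barcode abundance fold change, normalised to wild-type barcodes and log-transformed.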

[2] = test system: VchCAST RNA-guided transposition machinery (E. coli BL21(DE3) host, lacZ target); test: relative integration efficiency (T-LR orientation) vs wild-type transposon end (log2 (normalized fold change)); transposon end mutated: right end (5 bp flank + 75 bp right end); higher = more efficient transposition
How it was run: as §1

Row | Sequence | relative integration efficiency (log2) [1] | relative integration efficiency (log2) [2]
1 | ACATTTGTTGATACAACCATAAAGTGATATTTACACCCATAAATTGATATTGCTCACAACCATATATTGATATCTCCTCTGATCATAGTCAGACCAACATTGCTACGACCCGTATTCGCACCGACAC | -0.534 ± 0.18 | 0.671 ± 0.21
2 | ACATTTGTTGATACAACCATAAAAACATAATTACACCCATAAATTGATAATTATCACACCCATAAATTGATATTGCCTCTGATCATAGTCAGACCAACATTGCTACGACCCGTATTCGCACCGACAC | -1.45 ± 0.33 | -1.06 ± 0.19
3 | ACATTTGTTGATACAACCAATAAATGATAATTACACCCATTAATTGATAATAATGACACCGAATTTAACTATAACGCTCTGATCATAGTCAGACCAACATTGCTACGACCCGTATTCGCACCGACAC | -1.48 ± 0.29 | 1.91 ± 0.054
4 | ACATTTGTTGATACAACCAAAAAATGATAATTACACCCAAAAATTGATAATTATCACACCCAAAAATTGATATTGCCTCTGATCATAGTCAGACCAACATTGCTACGACCCGTATTCGCACCGACAC | -0.669 ± 0.11 | 0.0409 ± 0.087
5 | ACATTTGTTGATACAACCATAAAATGATAATTACACCCATCAATTGATAATTATCCCACCCAATTTAACTATAACGCTCTGATCATAGTCAGACCAACATTGCTACGACCCGTATTCGCACCGACAC | -1.93 ± 0.31 | 1.54 ± 0.022
6 | ACATTTGTTGATACAACCATATATTGATATCTCCAACCATAAAATGATAATTATCACAACCATAAGTTGATATTTTCTCTGATCATAGTCAGACCAACATTGCTACGACCCGTATTCGCACCGACAC | -0.491 ± 0.098 | -0.357 ± 0.16
7 | ACATTTGTTGATACACCCATAAATTGATATTGCCAACCATAAAGTGATATTTATCACACCCATAAATTGATAATTACTCTGATCATAGTCAGACCAACATTGCTACGACCCGTATTCGCACCGACAC | -0.649 ± 0.14 | -0.215 ± 0.15
8 | ACATTTGTCGATACAACCCTAAAATGATAATTACACCCATAAATGGATCATTATCACCCCCAATTTAACTATAACGCTCTGATCATAGTCAGACCAACATTGCTACGACCCGTATTCGCACCGACAC | -4.03 ± 0.42 | -1.4 ± 0.051
9 | ACATTTGTCGATACAACCCTAAAATGATAATTACACCCATAAATGGATAATTATCACCCCCAATTTAACTATAACGCTCTGATCATAGTCAGACCAACATTGCTACGACCCGTATTCGCACCGACAC | -3.44 ± 0.12 | -1.16 ± 0.21
10 | ACATTTGTTGATACAACCATAAAATGATAATTACACCCATAAATTGATAATTATCACACCCATAAATTGATATTGCCTCTGATCAAAATGTGAGCGAGTAACAACCTAGTCAGACCAGCACCGACAC | -0.102 ± 0.08 | -0.0747 ± 0.17
11 | ACATTTGTTGATACAACCATAAAATGATAATTAATAATTATTTATAACACCCATAAATTGATAATTATCACACCCATAAATTGATATTGCCTCTGATCATAGTCAGACCAACATTGCTACGACCCGT | -3.19 ± 0.2 | -0.494 ± 0.28
12 | ACATTTGTTGATACAACCATAAAATGATAATTCACCCATAAATTGATAATTATCACACCCCAATTTAACTATAACGCTCTGATCATAGTCAGACCAACATTGCTACGACCCGTATTCGCACCGACAC | -1.88 ± 0.17 | 1.7 ± 0.066
13 | ACATTTGTTGATACAACCATAAAATGATAATTAATAATTATTTATACACCCATAAATTGATAATTATCAACAAACGCCCGGTCGCGGTACTCTGATCATAGTCAGACCAACATTGCTACGACCCGTA | -3.12 ± 0.48 | 0.401 ± 0.042
14 | ACATTTGTTGATACCCAAATAAAATGATAATTACACCCATAAATTGATAATTATCACACCCATAAATTGATATTGCCTCTGATCATAGTCAGACCAACATTGCTACGACCCGTATTCGCACCGACAC | -2.59 ± 0.17 | -2.7 ± 0.25
15 | ACATTTGTTGATACAACCATAAAATGATAATTACACCCATAAATTGATCATTATCACCCCCAATTTAACTATAACGCTCTGATCATAGTCAGACCAACATTGCTACGACCCGTATTCGCACCGACAC | -1.35 ± 0.22 | 1.9 ± 0.065
16 | ACATTTGTTCATACAACCATAAAATGATAATTACCACCCATACATTGATAATTATCACACCCATTTAACTATAACGCTCTGATCATAGTCAGACCAACATTGCTACGACCCGTATTCGCACCGACAC | -3.31 ± 0.39 | -2.29 ± 0.1
17 | ACATTTGTCGATACAACCATAAAATGATAATTACACCCATAAATGGATCATTATCACCCCCAATTTAACTATAACGCTCTGATCATAGTCAGACCAACATTGCTACGACCCGTATTCGCACCGACAC | -1.61 ± 0.32 | 1.19 ± 0.086
18 | ACATTTGTTGATACAACCATAAAAGGATAATTCACCCATAAATTGATAATTATCACACCCACATTTAACTATAACGCTCTGATCATAGTCAGACCAACATTGCTACGACCCGTATTCGCACCGACAC | -2.38 ± 0.38 | 0.902 ± 0.15

Row | Sequence | relative integration efficiency (log2) [1] | relative integration efficiency (log2) [2]
19 | ACATTTGTTGATACAACCATACCCTGATAATTACACCCATACCGTGATAATTATCACACCCATACCGTGATATTGCCTCTGATCATAGTCAGACCAACATTGCTACGACCCGTATTCGCACCGACAC | -4.24 ± 0.2 | -2.37 ± 1
20 | ACATTTGTTGATACAACCATAAAATGATAATTACACCCATAAATTGATATTGCTCACACCCATAAATTGATATTGCCTCTGATCATAGTCAGACCAACATTGCTACGACCCGTATTCGCACCGACAC | -0.394 ± 0.045 | 0.786 ± 0.29
21 | ACATTTGTTGATACACCCATAAATTGATAATTACAACCATAAGTTGATATTTTTCACAACCATAAAGTGATATTTACTCTGATCATAGTCAGACCAACATTGCTACGACCCGTATTCGCACCGACAC | -0.613 ± 0.13 | -0.228 ± 0.18
22 | ACATTTGTTGATACAACCATAAAATGATAATTACACCCATAAATTGATAATTATCACACCCATAAATTGATATTGCCTCTGATCATAGTCAGCAACCATAAAATGATAATTAACCAAGCACCGACAC | -0.283 ± 0.15 | -0.485 ± 0.41
23 | ACATTTGTGGATACAACCATAAAATGATAATTACACCCATAAATTCATAATTATCACCCCCAATTTAACTATAACGCTCTGATCATAGTCAGACCAACATTGCTACGACCCGTATTCGCACCGACAC | -1.64 ± 0.37 | 1.27 ± 0.13
24 | ACATTTGTTGATACAACCATAAAGTGATATTTACAACCATAAGTTGATATTTTTCAGTGGGTATTTAACTATAACGCTCTGATCATAGTCAGACCAACATTGCTACGACCCGTATTCGCACCGACAC | -0.682 ± 0.18 | 2.73 ± 0.16
25 | ACATTTGTTGATACAACCATACCATGATAATTACACCCATACCTTGATAATTATCACACCCATACCTTGATATTGCCTCTGATCATAGTCAGACCAACATTGCTACGACCCGTATTCGCACCGACAC | -3.2 ± 0.16 | -1.75 ± 0.22
26 | ACATTTGTTGATACAACCATACCATGATAATTACACCCATAAATTGATAATTATCACACCCATAAATTGATATTGCCTCTGATCATAGTCAGACCAACATTGCTACGACCCGTATTCGCACCGACAC | -1.34 ± 0.079 | -1.98 ± 0.24
27 | ACATTTGTTGATACAACCATAAAATGATAATTAATACACCCATAAATTGATAATTATCACACCCATAAATTGATATTGCCTCTGATCATAGTCAGACCAACATTGCTACGACCCGTATTCGCACCGA | -3.47 ± 0.4 | -0.393 ± 0.24
28 | ACATTTGTGGATACAACCATAAAATGATAATTACCACCCATAAATTGATAATTATCACACCCATTTAACTATAACGCTCTGATCATAGTCAGACCAACATTGCTACGACCCGTATTCGCACCGACAC | -1.11 ± 0.24 | 1.54 ± 0.083
29 | ACATTTGTTGATACAACCATAAAATGATCATTACACCCATAAATTGATAATTATCCCACCCAATTTAACTATAACGCTCTGATCATAGTCAGACCAACATTGCTACGACCCGTATTCGCACCGACAC | -1.52 ± 0.18 | 2.27 ± 0.065
30 | ACATTTGTTCATACAACCATAAAATGATAATTCACCCATCAATTGATAATTATCACACCCCAATTTAACTATAACGCTCTGATCATAGTCAGACCAACATTGCTACGACCCGTATTCGCACCGACAC | -4.48 ± 0.28 | -2.51 ± 0.15
31 | ACATTTGTTGATAGAACCATTTAATGATAATAACACCCATAAAATGATAATTATCACACCCAATTTAACTATAACGCTCTGATCATAGTCAGACCAACATTGCTACGACCCGTATTCGCACCGACAC | -2.12 ± 0.42 | 0.598 ± 0.17
32 | ACATTTGTTGATACAACCATAAAAGGATCATTACCCCCATCAATTGATAATTATCCCACCCAATTTAACTATAACGCTCTGATCATAGTCAGACCAACATTGCTACGACCCGTATTCGCACCGACAC | -3.59 ± 0.36 | -0.858 ± 0.08
33 | ACATTTGTTGATACAACCATATATTGATATCTCCAACCATATATTGATATCTCTCACACCCATAAATTGATAATTACTCTGATCATAGTCAGACCAACATTGCTACGACCCGTATTCGCACCGACAC | -0.357 ± 0.067 | 0.23 ± 0.045
34 | ACATTTGTTGATACAACCATAAAATGATAATTACTCTGATCATAGTCAGCACCCATAAATTGATAATTATCAGTGGGTATTTAACTATAACGACCAACATTGCTACGACCCGTATTCGCACCGACAC | -2.61 ± 0.47 | 0.537 ± 0.24
35 | ACATTTGTTGATACAACCATAAAATGATAATTACACCCATAAATTGATAATTATCACACAAATAAATTGATATTGCCTCTGATCATAGTCAGACCAACATTGCTACGACCCGTATTCGCACCGACAC | -1.11 ± 0.18 | 2.06 ± 0.028
